Test results from the supplement of paper PMC9170038.

What follows are sequences tested on K4 kissing-loop RNA reporter (assay: apparent KD of K4 kissing-loop reporter; higher = weaker reporter binding). Settings: Eterna round: R107; input ligand: theophylline 20 uM.
Experimental: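 RNA-MaP round R107: designed RNA switches with theophylline, tryptophan, arginine or FMN aptamers are transcribed on-chip within common flanks. They are titrated with a labelled K4 kissing-loop RNA reporter in RNA-MaP buffer (100 mM Tris pH 7.5, 80 mM KCl, 4 mM MgCl2), without ligand or with the indicated ligand. Median apparent KD per design.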
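Further: bound reporter read as fluorescence of individual clusters on recovered sequencing chips by microscopy, with normalized cluster intensities fitted with a binding model.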

In order of rising “apparent KD of K4 kissing-loop reporter” value:
1. AGAGAUAUAUGAGGAUAUGGGUUUGUUAAUGAGUUAGUUUUAGUGUUGUUUGGUUAGUGAUGUUAUUUAGAAGGCGUGAGUGAUG [aatrmullin]  78.4 nM
2. AGGUUUUGAUUAGGAUAUGCACUGAGGAGGAGAAUAUAGUGAUGUUAUAUAAGAGGAAUUAGUAGAGUAGAAGGGAUUGAGGUUU [SSFMNB.T]  124 nM
3. UGUAUGUGAUUUGAUACCAGACCAGCUGGUGGAAACUGAGUGAUGUUCAGUUAGGUUUGGGUCCCUUGGCAGCAAAUCGCAUACU [KL-SSTheoB28]  134 nM
4. GGGUCAGCGCGAAGGAGCGCCCUGACAGGUUGCUGCCGUGGGCAGUGAUGUUGCUCAGUCCGGCAGGUAGGUCGCGUGCUGACCC  166 nM
5. CGACUAGUCUUGCAACCCUAGUCGAUAUGCUAGGAUAUCAGGAAACUGAGAAGGAGUUUACUUGCAGUGAUGUUGCAAGAAUAAU [KL-SSFMN-A10]  172 nM
6. AUUUUUUACAGAAGGAGCGUGUUAUAAUAAUCAUAUUGCUUAGCGAGUGAUGUUCGCUUUACACAGGUAGGUCGCUGUUUAUUUA [JR_Nu_ExcArginiB_Sub029]  180 nM
7. UGGAUAUAGUGAUGUUAUAUAGAGAGUGAUACCAGUUUAGAGAAGAACCCUUGGCAGCAUAAAGAAGUAUCAUUAGAGAAGAAUG [ExTheophyl.Ao]  224 nM
8. CUAUAAGUGCCGAGUGAUGUUCGGCCAAUACGAGGACCGGUACGGCCGCCACUCGGUCAGUGGGUGCCCACCGGGCAUGGCUGAC [Cecezaa]  227 nM
9. AAGUUGAACUGAAGGAGCGAGAAAUAGAAUGUAAGAAUAUAUGCUAGUGAUGUUAGAAAUUCUCAGGUAGGUCGCAGUAAGAAUU [V1]  510 nM

Same assay, conditions: Eterna round: R107; input ligand: tryptophan 2.4 mM

In order of rising “apparent KD of K4 kissing-loop reporter” value:
1. GAGGUACAGGCGGCCGCCACUAGUGAUGUUAGUGAUGUUAGAUAAAGUAUAUAUCGGCGUGUAGAUAGGACCGGGCCUGAUGGAG [ssrykmullin]  53.9 nM
2. UACAUAUUAUUUAACAUAAAUUUUACAGAAGGAGCGUGAUCAUUCACAGGUAGGUCGCUGAACUAGUGAUGUUAGUUUUAUUUUU [JR_Nu_ExcArginiA_Sub025]  57.3 nM
3. AGAGAUAUAUGAGGAUAUGGGUUUGUUAAUGAGUUAGUUUUAGUGUUGUUUGGUUAGUGAUGUUAUUUAGAAGGCGUGAGUGAUG [aatrmullin]  62.2 nM
4. UAUCUAUGCUCGGCCGCCACUAGGACCGGGAUCUCUCUAGUGAUGUUAGUCUGAUCGGCCGCCACUAGGACCGGGAGUGUAGAUA [KL-SSTryp-B15 #DoubleAptamer]  80.3 nM
5. AUUUGUUUAUGUGAUACCAGACUAAGCAGUGAUGUUGCUUUUAUUUUUGAAUUUUAAAUAGUCCCUUGGCAGCACUAUGUCUGUA [#05 K4 Theophylline B Same State]  94.2 nM
6. AAGUACACGAUAGUGUACACCUAGUGAUGUUAGGAUAUGCAGAUAUGCAGAAGGAACAAGUCAUCUGACAAUAGUCGGAUGACAA [FmnAX 6 #OpenEnded #K4Early]  98 nM
7. CCCGUUGCGGCGGCCGCCACUGACUUAUUGAUUAGGUUGCCAGUGAUGUUGGCCACCGGUCAAUACAGGACCGGGCCAUAGCGGG [Ceisreatte]  99.1 nM
8. AAGACCUGCAUCGAUACCAGCCCAGUGAUGUUGGGCUGCUCUCCAUGGGUGCCAGACACGGGCCCUUGGCAGCGAGGUAGGGCCC [Zazadilabi]  103 nM
9. CGAUAGGGAAGUCGAUUGCUCACUGGUAAACGAGGACCGGUACGGCCGCCACUCGGGUCCAGUGAUGUUGGACUUUGUGGCGGGC [Edladian]  109 nM
10. CUAUAAGUGCCGAGUGAUGUUCGGCCAAUACGAGGACCGGUACGGCCGCCACUCGGUCAGUGGGUGCCCACCGGGCAUGGCUGAC [Cecezaa]  112 nM
11. AAAUUUAUAUUAGAUACCAGUUUAUUGGAUGUAAAUUAUGACAUGAGUGAUGUUCAUGUAAGCCCUUGGCAGCUGGUAUGGGUUU [KL-XTheo-B22]  114 nM
12. CGACUAGUCUUGCAACCCUAGUCGAUAUGCUAGGAUAUCAGGAAACUGAGAAGGAGUUUACUUGCAGUGAUGUUGCAAGAAUAAU [KL-SSFMN-A10]  129 nM
13. UGUAUGUGAUUUGAUACCAGACCAGCUGGUGGAAACUGAGUGAUGUUCAGUUAGGUUUGGGUCCCUUGGCAGCAAAUCGCAUACU [KL-SSTheoB28]  138 nM
14. UGACUGGAUGGAAGGAGCGCUAAACUCCUAGUGAUGUUAGGGACAUGAGGCAUAGCCUUGAAGCAGGUAGGUCGCCAUCUAGUCU [FiskerMod 29 - Jieux - Same State - Arginine B]  144 nM
15. CGUUUAUAGCAGGAUACCAGUACCCAUUAUGUACGUUUAUAGUAGAGUGAUGUUCUAAAGUACCCUUGGCAGCUUCCUGUGUCCC [ExTheophylB.Ab]  150 nM
16. AUUUUUUACAGAAGGAGCGUGUUAUAAUAAUCAUAUUGCUUAGCGAGUGAUGUUCGCUUUACACAGGUAGGUCGCUGUUUAUUUA [JR_Nu_ExcArginiB_Sub029]  151 nM
17. GUAGAUAGGCUACAUCUCUAGUCUAAACACUAGGAUAUCAGGAAACUGAGAAGGAGUGUCAUUGGAGUGAUGUUCCAAGAAUAAU [KL-SSFMN-A17]  167 nM
18. GGGUCAGCGCGAAGGAGCGCCCUGACAGGUUGCUGCCGUGGGCAGUGAUGUUGCUCAGUCCGGCAGGUAGGUCGCGUGCUGACCC  169 nM
19. UGGAUAUAGUGAUGUUAUAUAGAGAGUGAUACCAGUUUAGAGAAGAACCCUUGGCAGCAUAAAGAAGUAUCAUUAGAGAAGAAUG [ExTheophyl.Ao]  176 nM
20. UGAUAGGACAGAAGGAGCGGGAGUGAUGUUCCCAAAUGGAUAGGUCGACAAAGUCGACCCUCCCAGGUAGGUCGCUGUCCUAUCU [ArgBX 7 #SwitchBubble #StaticStem]  187 nM
21. AGGUUUUGAUUAGGAUAUGCACUGAGGAGGAGAAUAUAGUGAUGUUAUAUAAGAGGAAUUAGUAGAGUAGAAGGGAUUGAGGUUU [SSFMNB.T]  196 nM
22. UCGCAAGAAUCACUGUGGAGGACCUUGGCCAAGGAUAUCAAAGGAUUGAGAAGGUGGCGCCAAGUGAUGUUUGGAUGCCGGGCAG [theeternabot_exclusion_KL_FMN_A_36]  256 nM
23. UAAAAUAAAUAAUAGAGAUAAUUACUCGAAGGAGCGACGAAUUCGUCAGGUAGGUCGCGAGUGAUGUUCGCAAAUAUUAUCUCAU [AK3 Exc Arginine A]  261 nM
24. GGCGUCUAAAAGUGCCUAGAGAGAAAGGAUACCAGCACCCGGCGGUGCCCUUGGCAGCCUAGCCCAGUGAUGUUGGGUCCUCUAA [Lasorian]  286 nM
25. CCGGCCCAGCCGGAUACCAGUGCGCCGCAGGGAACGGCGGGCCCAGAGUGAUGUUCGGGACACCCUUGGCAGCCGCCUGGGUCGC [#2 Same State - Theophylline B Attempt #27 (HarryS)]  297 nM
26. AAGUUGAACUGAAGGAGCGAGAAAUAGAAUGUAAGAAUAUAUGCUAGUGAUGUUAGAAAUUCUCAGGUAGGUCGCAGUAAGAAUU [V1]  317 nM
27. AAACAUCACUGGGAGUGAUGUUCUCAGUGACGAGGACCGGUACGGCCGCCACUCGCGAGAGAUUUAGUCUAGUCUUGACUGCAUU [Excl Tryptophan A V12]  331 nM
28. AAUAAUGGAGUGAUGUUCCAGUAAUGGGAUACCAGACAUGAAAAUGUCCCUUGGCAGCUCAAAGGUCUAGUGAUGUUAUAAAGAA [KL-SSTheo-A6]  377 nM
29. AAGCAGUCACUCGCAGCCAUCGAAGAUGGUCGAGGACCGGUACGGCCGCCACUCGGAGUGAUGUUCCGAAGACUGCAAAAUAAAA  400 nM
30. UGCAGUGAUGUUGCGAGUGGCAGAUACGAAGGAGCGUGGUGAGACACAGGUAGGUCGCGUAUCGAAAUUGCUGUCACUAAAAUGC [#8]  460 nM
31. ACAAUGAUCAAAGGAUAUCGUAAGUUAUACAUCACGCGAUGAUUCAGAGGCGAGUGAUGUUUGUCUCGAGAAGGUUGGUACCGUC [theeternabot_exclusion_KL_FMN_B_37]  568 nM
32. CAGCGGAGUGAUGUUCUGCUUACUGCGGAUACCAGCUUCGCCAGAGGCCCUUGGCAGCCGGGCGGCUCAGUGAUGUUGGGUUGCU [Same State Theophylline A GF 15]  664 nM
33. GCAACAUUGGCAGGAUAUCCUUCUCAGUGAUGUUGAGGGUUCAGCUAACGAAAGUUAGUUGUACCAGGAGAAGGGCUAAUGUUGC [Omei KL FMN B SS A v7]  1440 nM
